Test [1] has as its target Avi-tagged follistatin-288, biotinylated (UniProt P19883). The experiment in a line: BLI; biotinylated Avi-tagged FST-288 immobilised on streptavidin biosensors; analytes in kinetic buffer (PBS, 0.1% bovine serum albumin, 0.02% Tween-20); 600 s association, 600 s dissociation; 30 °C.
The target in test [2] is myostatin mature domain (Homo sapiens) (UniProt O14793). To be noted: cited from earlier work.
The target of test [3] is activin A mature domain (Homo sapiens) (UniProt P08476). To be noted: cited from earlier work.
The target of test [4] is myostatin mature domain mature domain (Homo sapiens) (UniProt O14793). To be noted: cited from earlier work.
Chain of myostatin mature domain mature domain (Homo sapiens) (O14793 267-375): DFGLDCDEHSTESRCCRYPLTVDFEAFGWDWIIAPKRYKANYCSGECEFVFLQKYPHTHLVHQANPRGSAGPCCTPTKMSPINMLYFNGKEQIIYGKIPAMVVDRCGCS

Chain of activin A mature domain (Homo sapiens) (P08476 311-426): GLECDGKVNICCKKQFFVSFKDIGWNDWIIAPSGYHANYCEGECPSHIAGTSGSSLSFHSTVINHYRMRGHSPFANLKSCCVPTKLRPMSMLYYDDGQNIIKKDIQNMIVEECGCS
Chain of Avi-tagged follistatin-288, biotinylated (P19883 30-317): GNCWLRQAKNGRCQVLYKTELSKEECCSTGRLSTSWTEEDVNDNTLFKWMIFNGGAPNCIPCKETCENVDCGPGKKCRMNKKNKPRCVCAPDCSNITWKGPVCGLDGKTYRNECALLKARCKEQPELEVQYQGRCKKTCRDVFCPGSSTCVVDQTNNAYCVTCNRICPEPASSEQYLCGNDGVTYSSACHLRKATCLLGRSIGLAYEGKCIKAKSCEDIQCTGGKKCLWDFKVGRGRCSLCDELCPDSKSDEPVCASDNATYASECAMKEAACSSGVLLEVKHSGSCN
Chain of myostatin pro-domain pro-domain (O14793 24-266): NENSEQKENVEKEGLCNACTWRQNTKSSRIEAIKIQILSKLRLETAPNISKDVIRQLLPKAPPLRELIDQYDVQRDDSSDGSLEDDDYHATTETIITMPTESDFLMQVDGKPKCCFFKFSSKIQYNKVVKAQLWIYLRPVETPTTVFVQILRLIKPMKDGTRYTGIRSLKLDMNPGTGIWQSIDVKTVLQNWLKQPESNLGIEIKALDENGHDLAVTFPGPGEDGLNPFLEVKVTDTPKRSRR
Chain of follistatin (P19883 30-344): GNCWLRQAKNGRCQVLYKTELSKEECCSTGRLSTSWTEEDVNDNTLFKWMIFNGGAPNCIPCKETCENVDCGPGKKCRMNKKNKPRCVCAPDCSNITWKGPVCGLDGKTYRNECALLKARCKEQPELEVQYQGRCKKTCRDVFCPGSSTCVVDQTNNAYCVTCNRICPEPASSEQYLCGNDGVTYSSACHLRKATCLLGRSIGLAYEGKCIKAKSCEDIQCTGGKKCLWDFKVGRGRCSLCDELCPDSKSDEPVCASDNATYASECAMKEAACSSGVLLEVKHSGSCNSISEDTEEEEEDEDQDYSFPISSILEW
Chain of follistatin FST-288 (P19883 30-344): as above
Chain of myostatin mature domain (Homo sapiens) (O14793 267-375): as the sequence (O14793 267-375) above

Broadly, the Kd is a measure of binding affinity in units of concentration. Turning to “cleaved pro-activin A complex (pro-mature complex) (from UniProt P08476 311-426)”, the Kd in test [1] turned out to be 0.259 nM. Regarding follistatin (from UniProt P19883), the Kd in test [2] is 12.3 nM. As for “follistatin FST-288 (from UniProt P19883)”, in test [3], the Kd was 0.0465 nM. Regarding “myostatin pro-domain pro-domain (from UniProt O14793)”, the Kd in test [4] is 8.3 nM.
